The values that follow are results of earlier work, collected in patent publication US20060166927A1, “Compounds that bind to the interferon-gamma, preparation method thereof and medicaments containing same” (priority 2002, published 2006).

B1: γ-IFN: polypeptide comprising, for example, 143 amino acids in humans, which is part of the cytokine family (protein, UniProt P01579 24-161, looked up)
Interferon gamma: QDPYVKEAENLKKYFNAGHSDVADNGTLFLGILKNWKEESDRKIMQSQIVSFYFKLFKNFKDDQSIQKSVETIKEDMNVKFFNSNKKKRDDFEKLTNYSVTDLNVQRKAIHELIQVMAELSPAAKTGKRKRSQMLFRG
Consider B1, for which the “proportion of injected γ-IFN rapidly bound by molecules of heparin/heparan sulphate type” value (at the surface of the vascular endothelium) is “approximately 90%”. The “cytokine disappearing from the circulating blood” value (intravenous injection, during the first 5 to 10 minutes) is listed as 90%. Also, under “intravenous injection, first phase of biexponential elimination”, the half-life time is around 1 min. The inactivation in vivo result (γ-IFN alone) is “rapidly inactivated by proteolytic degradation of its C-terminal end”.
